Measurements published in patent publication US20160083436A1 (Janssen / Centocor, published 2016).
Ends that are not written are not given here.

What was measured:
murine serum albumin [1] = target: T1, murine serum albumin (murine, UniProt P07724 25-608); experiment: SPR, same methods as Example 2
T1 construct: Bought from Sigma (A3559); also called mouse serum albumin; Mouse
Method: (§1) Each serum albumin was directly immobilized on a ligand channel in the vertical orientation of a GLC chip via standard amine coupling at 2.1 μg/mL at pH 5.0 to obtain surfaces with ligand densities of 500-1000 resonance units. […] The dissociation phases for all concentrations were monitored for two hours at a flow rate of 100 μL/min using PBST (PBS, 0.005% Tween20) as running buffer. A sixth sample (buffer only) was injected to monitor the baseline stability. The surfaces were regenerated using 1 short pulse (18 μL) of 0.8% phosphoric acid.
(§2) The raw response data were first processed by subtracting the buffer only responses and the non-specific binding between the analytes and the chip. Processed data of all five concentrations were globally fit to a 1:1 simple langmuir binding model for each ligand surface.

human serum albumin [2] = target: T2, human serum albumin (human, UniProt P02768 25-609); experiment: SPR, same methods as Example 2
T2 construct: Bought from Sigma (A4327); also called HSA
Method: as §1, §2

murine serum albumin [3] = target: T1, murine serum albumin; experiment: KD column of the mouse PK table; method and albumin species not stated there
Rhesus serum albumin [4] = target: T3, Rhesus serum albumin (Rhesus, UniProt Q28522 17-600, limits assumed); experiment: SPR (ProteOn XPR-36), albumin immobilized, ABDCon as analyte
T3 construct: Bought from Sigma (A4297)
T3 sequence (Q28522 17-600 limits assumed): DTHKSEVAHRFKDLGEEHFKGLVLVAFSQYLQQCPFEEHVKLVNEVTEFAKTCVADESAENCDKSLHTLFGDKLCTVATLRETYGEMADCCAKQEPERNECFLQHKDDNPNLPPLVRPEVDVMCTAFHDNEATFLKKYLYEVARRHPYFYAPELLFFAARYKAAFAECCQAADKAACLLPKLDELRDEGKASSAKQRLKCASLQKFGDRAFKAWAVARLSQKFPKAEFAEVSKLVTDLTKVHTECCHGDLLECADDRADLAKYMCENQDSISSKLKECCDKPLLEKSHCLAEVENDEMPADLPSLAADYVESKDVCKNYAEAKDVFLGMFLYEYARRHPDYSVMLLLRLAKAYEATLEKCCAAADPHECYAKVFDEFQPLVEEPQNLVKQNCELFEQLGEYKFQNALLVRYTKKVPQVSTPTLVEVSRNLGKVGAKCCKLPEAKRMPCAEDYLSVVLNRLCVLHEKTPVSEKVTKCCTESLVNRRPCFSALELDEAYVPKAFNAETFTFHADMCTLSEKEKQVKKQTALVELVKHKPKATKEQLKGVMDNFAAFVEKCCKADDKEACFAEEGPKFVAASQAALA
Method: as §1, §2

murine serum albumin [5] = target: T1, murine serum albumin; experiment: as above
Method: as §1, §2

human serum albumin [6] = target: T2, human serum albumin; experiment: as above
Method: as §1, §2

Rhesus serum albumin [7] = target: T3, Rhesus serum albumin; experiment: SPR
murine serum albumin [8] = target: T1, murine serum albumin; experiment: SPR

T1 sequence (P07724 25-608 limits assumed): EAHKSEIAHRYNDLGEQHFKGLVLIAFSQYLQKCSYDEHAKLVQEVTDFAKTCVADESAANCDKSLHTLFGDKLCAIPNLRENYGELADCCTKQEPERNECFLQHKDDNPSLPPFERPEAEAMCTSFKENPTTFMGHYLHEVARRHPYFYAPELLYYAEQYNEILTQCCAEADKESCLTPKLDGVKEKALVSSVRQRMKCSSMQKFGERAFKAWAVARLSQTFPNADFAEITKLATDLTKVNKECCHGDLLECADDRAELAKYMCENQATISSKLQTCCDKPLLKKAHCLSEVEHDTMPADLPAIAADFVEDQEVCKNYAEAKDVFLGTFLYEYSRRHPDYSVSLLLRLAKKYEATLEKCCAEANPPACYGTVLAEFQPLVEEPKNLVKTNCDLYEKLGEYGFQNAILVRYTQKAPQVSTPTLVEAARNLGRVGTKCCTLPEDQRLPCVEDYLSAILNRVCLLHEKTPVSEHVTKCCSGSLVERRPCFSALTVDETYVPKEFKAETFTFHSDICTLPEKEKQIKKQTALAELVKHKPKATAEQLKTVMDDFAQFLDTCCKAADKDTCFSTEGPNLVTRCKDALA

Binder	Kd (Rhesus serum albumin [7]) [nM]	Kd (murine serum albumin [8]) [nM]	other results
ABDCon12 (designed binder, also called ABDCon with N-terminal TIDEWL extension; not shown: N-terminal poly histidine tag) TIDEWLLKEAKEKAIEELKKAGITSDYYFDLINKAKTVEGVNALKDEILKA	–	–	Kd (murine serum albumin [1]): 8.2 nM; Kd (human serum albumin [2]): 0.7 nM
Tencon25-ABDCon fusion protein (designed binder, not shown: C-terminal poly-histidine tag) MLPAPKNLVVSEVTEDSARLSWTAPDAAFDSFLIQYQESEKVGEAIVLTVPGSERSYDLTGLKPGTEYTVSIYGVKGGHRSNPLSAIFTTGGGGSGGGGSLKEAKEKAIEELKKAGITSDYYFDLINKAKTVEGVNALKDEILKA	–	–	Kd (murine serum albumin [3]): 1.86 nM
LKEAKEKAIEELKKAGITSDYYFDLINKAKTVEGVNALKDEILKA (designed binder, not fully specified (N-terminus), Expressed in E. coli with an N-terminal 8-His tag; measured mass 6383 Da; not shown: N-terminal 8-His tag) [ABDCon (non-natural albumin binding domain consensus)]	–	–	Kd (Rhesus serum albumin [4]): 0.0601 nM; koff (Rhesus serum albumin [4]): 6.78e-05 s⁻¹; kon (Rhesus serum albumin [4]): 1.13e+06 M⁻¹ s⁻¹; Kd (murine serum albumin [5]): 3.22 nM; koff (murine serum albumin [5]): 0.000776 s⁻¹; kon (murine serum albumin [5]): 241000 M⁻¹ s⁻¹; Kd (human serum albumin [6]): 0.0748 nM; koff (human serum albumin [6]): 3.02e-05 s⁻¹; kon (human serum albumin [6]): 404000 M⁻¹ s⁻¹
LKEAKEKAIEELKKAGITSDYYFDLINKAKTVEGVNALKDQILKA (designed binder, not fully specified, Expressed and purified as described for ABDCon; also called ABDCon E41Q; not shown: N-terminal 8-His tag as for ABDCon) [ABDCon7]	0.5	20.6	–
LKEAKEKAIEELKKAGITSDYSFDLINKAKTVEGVNALKDEILKA (designed binder, not fully specified, Expressed and purified as described for ABDCon; also called ABDCon Y22S; not shown: N-terminal 8-His tag as for ABDCon) [ABDCon5]	104	1650	–
LKEAKEKAIEELKKAGITSDAYFDLINKAKTVEGVNALKDEILKA (designed binder, not fully specified, Expressed and purified as described for ABDCon; also called ABDCon Y21A; not shown: N-terminal 8-His tag as for ABDCon) [ABDCon2]	17.5	–	–
LKEAKEKAIEELKKAGITSDYYFDLINKAKTVEGVNVLKDEILKA (designed binder, not fully specified, Expressed and purified as described for ABDCon; also called ABDCon A37V; not shown: N-terminal 8-His tag as for ABDCon) [ABDCon10]	1.3	37.8	–
LKEAKEKAIEELKKAGITSDYVFDLINKAKTVEGVNALKDEILKA (designed binder, not fully specified, Expressed and purified as described for ABDCon; also called ABDCon Y22V; not shown: N-terminal 8-His tag as for ABDCon) [ABDCon6]	8.4	190	–
LKEAKEKAIEELKKAGITSDYYFDLINKADTVEGVNALKDEILKA (designed binder, not fully specified, Expressed and purified as described for ABDCon; also called ABDCon K30D; not shown: N-terminal 8-His tag as for ABDCon) [ABDCon8]	65	1000	–
LKEAKEKAIEELKKAGITSDYYFDLINKAKAVEGVNALKDEILKA (designed binder, not fully specified, Expressed and purified as described for ABDCon; also called ABDCon T31A; not shown: N-terminal 8-His tag as for ABDCon) [ABDCon9]	206	551	–
LKEAKEKAIEELKKAGITSDYAFDLINKAKTVEGVNALKDEILKA (designed binder, not fully specified, Expressed and purified as described for ABDCon; also called ABDCon Y22A; not shown: N-terminal 8-His tag as for ABDCon) [ABDCon4]	43.7	571	–
LKEAKEKAIEELKKAGITSDKYFDLINKAKTVEGVNALKDEILKA (designed binder, not fully specified, Expressed and purified as described for ABDCon; also called ABDCon Y21K; not shown: N-terminal 8-His tag as for ABDCon) [ABDCon3]	5.1	103	–
